Results as given in patent US20070128192A1 (AstraZeneca / MedImmune, published 2007).
Where two headings read alike, the source gives them in different places.

Columns and labels:
[1] = target: T1, human IL-13 (human, UniProt P35225 15-146); experiment: cell-based or functional assay
[2] = target: T2, wild type human IL-13, baculovirus expressed, carboxyl terminus affinity tag (human, UniProt P35225 33-146); experiment: cell-based or functional assay
[3] = target: T3, non-human primate IL-13 (rhesus and cynomolgus, identical), baculovirus expressed, carboxyl terminus affinity … (rhesus and cynomolgus monkey, UniProt Q5I6E4 21-132 (Macaca thibetana entry)); experiment: cell-based or functional assay
T3 chain: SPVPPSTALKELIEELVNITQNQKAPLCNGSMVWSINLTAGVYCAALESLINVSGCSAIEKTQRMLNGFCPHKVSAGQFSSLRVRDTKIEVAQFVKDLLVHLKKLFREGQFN

[4] = target: T2, wild type human IL-13, baculovirus …; experiment: cell-based or functional assay; remark: listed apart in the source
[5] = target: human IL-13 variant (Q130R), baculovirus expressed, carboxyl terminus affinity tag (human, UniProt P35225 33-146); experiment: cell-based or functional assay
[6] = target: native (naturally occurring) human IL-13 released from HDLM-2 cells (human, UniProt P35225 15-146); experiment: cell-based or functional assay
[7] = target: T3, non-human primate IL-13 (rhesus and …); experiment: cell-based or functional assay
[8] = target: T1, human IL-13; experiment: BIAcore, IgG coupled to CM5 chip, IL-13 50 nM to 0.78 nM passed over
[9] = target: T4, murine IL-13 (mouse, UniProt P20109 21-131, limits assumed); experiment: cell-based or functional assay
T4 sequence (looked up): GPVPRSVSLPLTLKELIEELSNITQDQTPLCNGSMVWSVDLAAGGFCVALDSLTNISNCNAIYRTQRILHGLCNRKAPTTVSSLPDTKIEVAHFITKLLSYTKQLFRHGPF

[10] = target: T4, murine IL-13; experiment: BIAcore, IgG4 coupled to CM5 chip, murine IL-13 passed over
[11] = target: T1, human IL-13; experiment: cell-based or functional assay; remark: listed apart in the source

T2 sequence (P35225 other isoform, or with tags, fused parts or gaps): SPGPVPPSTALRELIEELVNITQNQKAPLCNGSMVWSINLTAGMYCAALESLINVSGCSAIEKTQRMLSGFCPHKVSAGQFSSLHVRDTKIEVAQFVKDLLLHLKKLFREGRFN
T1 sequence (P35225 other isoform, or with tags, fused parts or gaps): as above
Sequence of native (naturally occurring) human IL-13 released from HDLM-2 cells (P35225 other isoform, or with tags, fused parts or gaps): as above
Sequence of human IL-13 variant (Q130R), baculovirus expressed, carboxyl terminus affinity tag (P35225 33-146 limits assumed, stated change not applied, form in doubt): as the sequence (P35225 other isoform, or with tags, fused parts or gaps) above, with R112Q counted along it

B1: BAK278D6 scFv (scFv, V domains shown)
VH: EVQLVQSGAEVKKPGASVKVSCKASGYTFRNYGLSWVRQAPGQGLEWMGWISANNGDTNYGQEFQGRITMTTETSTNTAHMELRSLRSDDTAVYYCVRDSSSNWARWFFDLWGKGTMVTVSS
VL: SYVLTQPPSVSVAPGQTARIPCGGNNIGSKLVHWYQQKPGQAPVLVVYDDGDRPSGIPERFSGSNSGNTATLTISRIDAGDEADYYCQVWDTGSDPVVFGGGTKLTVL
- IC50, TF-1 cell proliferation assay [1]: 44 nM
- IC50 (read off the curve); TF-1 cell proliferation, 25 ng/ml human IL-13 [2]: ~70 nM
- IC50 (read off the curve); TF-1 cell proliferation, 50 ng/ml non-human primate IL-13 [3]: ~90 nM

B2: BAK1183H4 IgG4 (antibody, V domains shown)
VH: QVQLVQSGAEVKKPGASVKVSCKASGYTFTNYGLSWVRQAPGQGLEWMGWINYDGGNTQYGQEFQGRVTMTTDTSTSTAYMELRSLRSDDTAVYYCARDSSSSWARWFFDLWGRGTLVTVSS
VL: SYVLTQPPSVSVAPGKTARITCGGNIIGSKLVHWYQQKPGQAPVLVIYDDGDRPSGIPERFSGSNSGNTATLTISRVEAGDEADYYCQVWDTGSDPVVFGGGTKLTVL
- IC50, TF-1 cell proliferation assay [4]: 0.9 nM
- IC50, TF-1 cell proliferation assay [5]: 1 nM
- IC50, HDLM-2 cell proliferation assay [6]: 3.5 nM

B3: BAK502G9 IgG4 (antibody, V domains shown)
VH: QVQLVQSGAEVKKPGASVKVSCKASGYTFTNYGLSWVRQAPGQGLEWMGWISANNGDTNYGQEFQGRVTMTTDTSTSTAYMELRSLRSDDTAVYYCARDSSSSWARWFFDLWGRGTLVTVSS
VL: SYVLTQPPSVSVAPGKTARITCGGNIIGSKLVHWYQQKPGQAPVLVIYDDGDRPSGIPERFSGSNSGNTATLTISRVEAGDEADYYCQVWDTGSDPVVFGGGTKLTVL
- IC50, TF-1 cell proliferation assay [5]: 1.9 nM
- IC50, TF-1 cell proliferation assay [7]: 2 nM
- IC50, HDLM-2 cell proliferation assay [6]: 4.6 nM

B4: BAK1167F2 IgG4 (antibody, V domains shown)
VH: QVQLVQSGAEVKKPGASVKVSCKASGYTFEQTGVSWVRQAPGQGLEWMGWISANNGDTNYGQEFQGRVTMTTDTSTSTAYMELRSLRSDDTAVYYCARDSSSSWARWFFDLWGRGTLVTVSS
VL: SYVLTQPPSVSVAPGKTARITCGGNIIGSKLVHWYQQKPGQAPVLVIYDDGDRPSGIPERFSGSNSGNTATLTISRVEAGDEADYYCQVWDTGSDPVVFGGGTKLTVL
- IC50, TF-1 cell proliferation assay [4]: 1 nM
- IC50, TF-1 cell proliferation assay [5]: 1.1 nM
- IC50, HDLM-2 cell proliferation assay [6]: 1.1 nM

B5: BAK278D6 IgG (antibody, V domains shown)
VH: EVQLVQSGAEVKKPGASVKVSCKASGYTFRNYGLSWVRQAPGQGLEWMGWISANNGDTNYGQEFQGRITMTTETSTNTAHMELRSLRSDDTAVYYCVRDSSSNWARWFFDLWGKGTMVTVSS
VL: SYVLTQPPSVSVAPGQTARIPCGGNNIGSKLVHWYQQKPGQAPVLVVYDDGDRPSGIPERFSGSNSGNTATLTISRIDAGDEADYYCQVWDTGSDPVVFGGGTKLTVL
- Kd [8]: 13.5 nM
- koff [8]: 0.00741 s⁻¹
- kon [8]: 549000 M⁻¹ s⁻¹

B6: BAK209B11 scFv (scFv, V domains shown)
VH: VQLQESGGGGLVQPGGSLRLSCAASGFTFSSYGMSWVRQAPGKGLEWVSSISASGDSTFYADSVKGRFTISRDNNKNMVFLQVNSLRADDTAVYFCAKDWSQWLVGDAFDVWGRGTTVTVSS
VL: DIQLTQSPSTLSASVGDRVTITCRASQSVSLWVAWYQQRPGKAPKLLIYDGSTLQSGVPARFSGSGSGTEFTLTISSLQPDDFATYYCQQYKTFSTFGQGTKVEIK
- IC50, TF-1 cell proliferation assay [9]: 185 nM

B7: BAK209B11 human IgG4 (antibody, V domains shown)
VH: VQLQESGGGGLVQPGGSLRLSCAASGFTFSSYGMSWVRQAPGKGLEWVSSISASGDSTFYADSVKGRFTISRDNNKNMVFLQVNSLRADDTAVYFCAKDWSQWLVGDAFDVWGRGTTVTVSS
VL: DIQLTQSPSTLSASVGDRVTITCRASQSVSLWVAWYQQRPGKAPKLLIYDGSTLQSGVPARFSGSGSGTEFTLTISSLQPDDFATYYCQQYKTFSTFGQGTKVEIKR
- IC50, B9 cell proliferation assay [9]: 0.776 nM
- Kd [10]: 5.1 nM
- koff [10]: 0.0198 s⁻¹
- kon [10]: 3.9e+06 M⁻¹ s⁻¹

B8: BAK615E3 scFv (scFv, V domains shown)
VH: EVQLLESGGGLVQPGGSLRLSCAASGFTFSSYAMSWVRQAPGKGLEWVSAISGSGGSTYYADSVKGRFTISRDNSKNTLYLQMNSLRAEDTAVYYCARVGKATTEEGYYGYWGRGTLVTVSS
VL: NFMLTQPHSVSESPGKTVTISCTRSSGSIASNYVQWYQQRPGSAPTTVIYDDNQRPSGVPDRFSGSIDSSSNSASLTISGLKTEDEADYYCQSYDSNNDVFGGGTKVTVL
- IC50, TF-1 cell proliferation assay [11]: 3 nM
